Drawing on article PMC3905869, this text covers binding result and Kd for 3 molecules.

In data set [1] the target is T1, VirB delta C (Shigella flexneri, UniProt P0A247 1-250).
T1 sequence: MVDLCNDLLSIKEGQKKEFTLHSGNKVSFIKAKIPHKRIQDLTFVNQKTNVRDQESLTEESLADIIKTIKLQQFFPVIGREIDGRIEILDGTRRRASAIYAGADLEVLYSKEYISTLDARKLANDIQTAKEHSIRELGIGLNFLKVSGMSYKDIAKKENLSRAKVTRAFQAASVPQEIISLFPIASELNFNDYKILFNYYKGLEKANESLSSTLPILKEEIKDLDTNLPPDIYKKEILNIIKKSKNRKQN
Briefly: competition.

The target of data set [2] is T1, VirB delta C. Briefly: EMSA with self-competition.
In data set [3] the target is T2, VirB FL (Shigella flexneri, UniProt P0A247 1-309).
T2 sequence: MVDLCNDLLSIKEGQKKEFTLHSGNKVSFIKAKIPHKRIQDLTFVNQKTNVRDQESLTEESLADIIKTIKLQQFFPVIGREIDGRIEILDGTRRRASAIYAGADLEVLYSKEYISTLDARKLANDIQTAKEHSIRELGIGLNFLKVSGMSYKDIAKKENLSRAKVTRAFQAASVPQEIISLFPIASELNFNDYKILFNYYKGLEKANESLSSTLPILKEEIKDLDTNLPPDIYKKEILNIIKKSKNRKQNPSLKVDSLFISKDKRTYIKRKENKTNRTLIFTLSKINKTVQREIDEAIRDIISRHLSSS
Briefly: EMSA with self-competition. In general terms: Mobility shift assays separate free from complexed probe on a gel.

Data set [4] addresses T3, VirB delta N (Shigella flexneri, UniProt P0A247 129-309).
T3 sequence: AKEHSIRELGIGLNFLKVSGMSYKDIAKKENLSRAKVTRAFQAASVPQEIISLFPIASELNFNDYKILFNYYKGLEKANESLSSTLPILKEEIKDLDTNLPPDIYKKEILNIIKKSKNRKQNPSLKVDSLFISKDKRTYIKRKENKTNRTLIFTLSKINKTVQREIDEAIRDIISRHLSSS
Briefly: EMSA with self-competition.

Data set [5] addresses T3, VirB delta N. Briefly: fluorescence anisotropy. (In general: Polarisation of emitted light reports the rotation of a fluorescent probe.)
Data set [6] deals with T1, VirB delta C. Briefly: fluorescence anisotropy.
Data set [7] deals with T2, VirB FL. Briefly: fluorescence anisotropy.
Data set [8] has as its target T4, VirB core (HTH domain) (Shigella flexneri, UniProt P0A247 129-250).
T4 sequence: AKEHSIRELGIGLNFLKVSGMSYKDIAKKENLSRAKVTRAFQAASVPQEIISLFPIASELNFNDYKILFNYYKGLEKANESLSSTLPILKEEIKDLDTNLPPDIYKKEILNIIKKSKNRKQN
Briefly: fluorescence anisotropy.

B1: icsB-mut (dsDNA)
DNA 1: AAACTCGTTTCATCGCTGGGCCCCAC
DNA 2: GTGGGGCCCAGCGATGAAACGAGTTT
Consider B1, for which the binding result in data set [1] is “no binding”.

B2: icsB-wt (dsDNA)
DNA 1: AAACTCGTTTCATCATGAAATCCCAC
DNA 2: GTGGGATTTCATGATGAAACGAGTTT
B2: the binding result in data set [2], in data set [3] and in data set [4] was “binds” in each case.

B3: FAM-icsB-wt-50bp (dsDNA)
DNA 1: CTCGTTTCATCATGAAATCCCACAAGATAAAGTGCCTGATGTATCAGGCT
DNA 2: AGCCTGATACATCAGGCACTTTATCTTGTGGGATTTCATGATGAAACGAG
The Kd is the equilibrium constant for the complex coming apart. A higher Kd goes with lower affinity. For the molecule B3, the Kd is 12 ± 0.3 nM in data set [5], 139 ± 15 nM in data set [6], 11 ± 0.3 nM in data set [7] and 16 ± 3 nM in data set [8].
